Laboratory results: patent publication US20210246166A1 (Bayer, published 2021)
Numbered stars: 1 amine (or outer) side, 2 acyl side, 3 side chain; on linkers, the order of the positions; unused ones are H or OH. Bridge positions count the residues as written; N and C are the ends. Square brackets hold non-standard residues; d marks the D form. Ends that are not written are not given here. cPrCO(1-aminomethyl) = O=C(C1(CN[*:1])CC1)[*:2]; Pro(4-spirocPr) = O=C(O)[C@@H]1CC2(CC2)CN1; Oic = O=C(O)[C@@H]1C[C@@H]2CCCC[C@@H]2N1; tBuAla = CC(C)(C)C[C@H](N)C(=O)O; Pen = CC(C)(S)[C@H](N)C(=O)O; NMeC = CN[C@@H](CS)C(=O)O; PEG3 = NCCOCCOCCOCCC(=O)O; PEG2 = NCCOCCOCCC(=O)O; Sar = CNCC(=O)O

T1: recombinant rat MASP1 active protease (amino acids 302-704, C-terminal His Tag) (rat, UniProt Q8CHN8 302-704)
T1 sequence: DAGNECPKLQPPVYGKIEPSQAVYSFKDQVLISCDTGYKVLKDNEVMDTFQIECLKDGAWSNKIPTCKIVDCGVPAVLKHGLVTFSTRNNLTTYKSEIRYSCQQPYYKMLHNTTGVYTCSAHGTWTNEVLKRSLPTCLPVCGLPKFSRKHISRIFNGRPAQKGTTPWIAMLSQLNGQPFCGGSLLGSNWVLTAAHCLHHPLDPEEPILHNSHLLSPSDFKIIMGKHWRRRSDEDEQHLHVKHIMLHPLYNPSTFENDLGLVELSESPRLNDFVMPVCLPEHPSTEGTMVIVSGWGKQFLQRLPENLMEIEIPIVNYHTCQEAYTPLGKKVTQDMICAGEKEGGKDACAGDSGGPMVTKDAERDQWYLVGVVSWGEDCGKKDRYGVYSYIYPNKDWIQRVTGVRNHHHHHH

B1: Example 32: (ACMP)-IC+SRS-((tBu)A)-PPI-(Pen)+IPD-NH2 (peptide)
peptide: [cPrCO(1-aminomethyl)]ICSRS[tBuAla]PPI[Pen]IPD-NH2
modifications: disulfide 3-11; N-terminus assumed
SMILES: CC[C@H](C)[C@@H]1NC(=O)[C@@H]2CCCN2C(=O)[C@@H]2CCCN2C(=O)[C@H](CC(C)(C)C)NC(=O)[C@H](CO)NC(=O)[C@H](CCCNC(=N)N)NC(=O)[C@H](CO)NC(=O)[C@@H](NC(=O)[C@@H](NC(=O)C2(CN)CC2)[C@@H](C)CC)CSSC(C)(C)[C@@H](C(=O)N[C@H](C(=O)N2CCC[C@H]2C(=O)N[C@@H](CC(=O)O)C(N)=O)[C@@H](C)CC)NC1=O
B2: Example 88: ((N-Me)G)-IC+SRSLP-(Oic)-I-(Pen)+IPD-OH (peptide)
peptide: [Sar]ICSRSLP[Oic]I[Pen]IPD-OH
modifications: disulfide 3-11; N-terminus assumed
SMILES: CC[C@H](C)[C@H](NC(=O)CNC)C(=O)N[C@H]1CSSC(C)(C)[C@@H](C(=O)N[C@H](C(=O)N2CCC[C@H]2C(=O)N[C@@H](CC(=O)O)C(=O)O)[C@@H](C)CC)NC(=O)[C@H]([C@@H](C)CC)NC(=O)[C@@H]2C[C@@H]3CCCC[C@@H]3N2C(=O)[C@@H]2CCCN2C(=O)[C@H](CC(C)C)NC(=O)[C@H](CO)NC(=O)[C@H](CCCNC(=N)N)NC(=O)[C@H](CO)NC1=O
B3: Example 54: VIC+SRS-((tBu)A)-PPI-(Pen)+IPD-NH2 (peptide)
peptide: VICSRS[tBuAla]PPI[Pen]IPD-NH2
modifications: disulfide 3-11; N-terminus assumed
SMILES: CC[C@H](C)[C@H](NC(=O)[C@@H](N)C(C)C)C(=O)N[C@H]1CSSC(C)(C)[C@@H](C(=O)N[C@H](C(=O)N2CCC[C@H]2C(=O)N[C@@H](CC(=O)O)C(N)=O)[C@@H](C)CC)NC(=O)[C@H]([C@@H](C)CC)NC(=O)[C@@H]2CCCN2C(=O)[C@@H]2CCCN2C(=O)[C@H](CC(C)(C)C)NC(=O)[C@H](CO)NC(=O)[C@H](CCCNC(=N)N)NC(=O)[C@H](CO)NC1=O
B4: Example 21: AIC+SRS-((tBu)A)-PPI-(Pen)+IPe-NH2 (peptide)
peptide: AICSRS[tBuAla]PPI[Pen]IP[dE]-NH2
modifications: disulfide 3-11; N-terminus assumed
SMILES: CC[C@H](C)[C@H](NC(=O)[C@H](C)N)C(=O)N[C@H]1CSSC(C)(C)[C@@H](C(=O)N[C@H](C(=O)N2CCC[C@H]2C(=O)N[C@H](CCC(=O)O)C(N)=O)[C@@H](C)CC)NC(=O)[C@H]([C@@H](C)CC)NC(=O)[C@@H]2CCCN2C(=O)[C@@H]2CCCN2C(=O)[C@H](CC(C)(C)C)NC(=O)[C@H](CO)NC(=O)[C@H](CCCNC(=N)N)NC(=O)[C@H](CO)NC1=O
B5: Example 41: AIC+SRS-((tBu)A)-P-((6S)-5-Azaspiro[2.4]heptane-6-carboxylic acid)-I-((N-Me)C)+IPD-NH2 (peptide)
peptide: AICSRS[tBuAla]P[Pro(4-spirocPr)]I[NMeC]IPD-NH2
modifications: disulfide 3-11; N-terminus assumed
SMILES: CC[C@H](C)[C@H](NC(=O)[C@H](C)N)C(=O)N[C@H]1CSSC[C@@H](C(=O)N[C@H](C(=O)N2CCC[C@H]2C(=O)N[C@@H](CC(=O)O)C(N)=O)[C@@H](C)CC)N(C)C(=O)[C@H]([C@@H](C)CC)NC(=O)[C@@H]2CC3(CC3)CN2C(=O)[C@@H]2CCCN2C(=O)[C@H](CC(C)(C)C)NC(=O)[C@H](CO)NC(=O)[C@H](CCCNC(=N)N)NC(=O)[C@H](CO)NC1=O

target: recombinant rat MASP2 active protease (amino acids 296-685, C-terminal His Tag) (rat, UniProt Q9JJS8 296-685); assay: cell-based or functional assay
Sequence (Q9JJS8 other isoform, or with tags, fused parts or gaps limits assumed): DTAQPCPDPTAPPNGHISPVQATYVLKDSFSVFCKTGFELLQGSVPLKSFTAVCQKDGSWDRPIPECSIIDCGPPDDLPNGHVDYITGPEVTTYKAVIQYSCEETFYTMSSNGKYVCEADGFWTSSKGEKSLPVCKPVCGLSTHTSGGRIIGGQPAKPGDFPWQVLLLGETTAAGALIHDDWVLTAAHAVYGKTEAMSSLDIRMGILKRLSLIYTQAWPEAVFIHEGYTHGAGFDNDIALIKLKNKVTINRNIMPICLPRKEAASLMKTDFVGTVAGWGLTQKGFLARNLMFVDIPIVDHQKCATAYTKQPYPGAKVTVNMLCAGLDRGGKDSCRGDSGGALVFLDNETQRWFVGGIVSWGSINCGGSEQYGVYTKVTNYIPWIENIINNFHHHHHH

Row | rat MASP2 IC50 | Binder
1 | 48 nM | B1
2 | 27 nM | [Sar]ICSRS[tBuAla]PPI[Pen]IP-{PEG5‑CH2CO2H (18 atoms)-NH2} (disulfide 3-11) [Example 55: ((N-Me)G)-IC+SRS-((tBu)A)-PPI-(Pen)+IP-(PEG5-CH2CO2H (18 atoms))-NH2]
3 | 16 nM | [Sar]ICSRSLP[Oic]I[Pen]IP-{PEG3-NH2} (disulfide 3-11) [Example 7: ((N-Me)G)-IC+SRSLP-(Oic)-I-(Pen)+IP-(PEG2(13 atoms))-NH2]
4 | 68 nM | B2
5 | 48 nM | B3
6 | 37 nM | [Sar]ICSRS[tBuAla]PPI[Pen]IP-{PEG2-NH2} (disulfide 3-11; also: HCl salt) [Example 39: ((N-Me)G)-IC+SRS-((tBu)A)-PPI-(Pen)+IP-(PEG1(10 atoms))-NH2 (HCl salt)]
7 | 40 nM | B4
8 | 27 nM | [Sar]ICSRS[tBuAla]PPI[Pen]IP-{PEG3-NH2} (disulfide 3-11) [Example 72: ((N-Me)G)-IC+SRS-((tBu)A)-PPI-(Pen)+IP-(PEG2(13 atoms))-NH2]
9 | 49 nM | AICSRSLP[Oic]I[Pen]IPD-OH (disulfide 3-11) [Example 5: AIC+SRSLP-(Oic)-I-(Pen)+IPD-OH (salt free form)]
10 | 13 nM | B5

target: T1, recombinant rat MASP1 active protease …; assay: cell-based or functional assay

Row | rat MASP1 IC50 | Binder
11 | 56 nM | B1
12 | 65 nM | [Sar]ICSRS[tBuAla]PPI[Pen]IP-{PEG5‑CH2CO2H (18 atoms)-NH2} (disulfide 3-11) [Example 55: ((N-Me)G)-IC+SRS-((tBu)A)-PPI-(Pen)+IP-(PEG5-CH2CO2H (18 atoms))-NH2]
13 | 30 nM | [Sar]ICSRSLP[Oic]I[Pen]IP-{PEG3-NH2} (disulfide 3-11) [Example 7: ((N-Me)G)-IC+SRSLP-(Oic)-I-(Pen)+IP-(PEG2(13 atoms))-NH2]
14 | 36 nM | B2
15 | 160 nM | B3
16 | 49 nM | [Sar]ICSRS[tBuAla]PPI[Pen]IP-{PEG2-NH2} (disulfide 3-11; also: HCl salt) [Example 39: ((N-Me)G)-IC+SRS-((tBu)A)-PPI-(Pen)+IP-(PEG1(10 atoms))-NH2 (HCl salt)]
17 | 67 nM | B4
18 | 43 nM | [Sar]ICSRS[tBuAla]PPI[Pen]IP-{PEG3-NH2} (disulfide 3-11) [Example 72: ((N-Me)G)-IC+SRS-((tBu)A)-PPI-(Pen)+IP-(PEG2(13 atoms))-NH2]
19 | 28 nM | B5
